Reference: IntAct's records for PubMed 16354671

B1: Outer-membrane lipoprotein carrier protein (Escherichia coli (strain K12)), P61316 (parent)
chain: MKKIAITCALLSSLVASSVWADAASDLKSRLDKVSSFHASFTQKVTDGSGAAVQEGQGDLWVKRPNLFNWHMTQPDESILVSDGKTLWFYNPFVEQATATWLKDATGNTPFMLIARNQSSDWQQYNIKQNGDDFVLTPKASNGNLKQFTINVGRDGTIHQFSAVEQDDQRSSYQLKSQQNGAVDAAKFTFTPPQGVTVDDQRK
partner: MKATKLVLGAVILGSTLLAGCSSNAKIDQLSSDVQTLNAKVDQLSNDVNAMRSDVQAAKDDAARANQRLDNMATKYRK

Variants of: B1
Settings: with lpp_ecoli lpp

Row | Variant | effect of a mutation on the interaction
1 | MKKIAITCALLSSLVASSVWADAASDLKSRLDKVSSFHASFTQKVTDGSGAAVQEGQGDLWVKRPNLFNWHMTQPDESILVSDGKTLWFYNPFVEQATATWLKDATGNTPFMLGARNQSSDWQQYNIKQNGDDFVLTPKASNGNLKQFTINVGRDGTIHQFSAVEQDDQRSSYQLKSQQNGAVDAAKFTFTPPQGVTVDDQRK [I114G] | increasing interaction
